Data on one substance can be found in patent US20240228595A1.

In this assay the target is SARS-COV-2 Omicron BA.1.1 spike on HIV-1 based pseudovirus (SARS-CoV-2 Omicron BA.1.1) (UniProt P0DTC2). The assay can be described thus: cell-based or functional assay.

S309 (Sotrovimab) (antibody) registered a pseudovirus neutralization, IC50 of 0.533 µg/mL.
